Here are results for four proteins from article PMC3099344 (Structure (London, England : 1993), 2011).

The data set “AUC” concerns the molecule itself. The data set is described as follows: AUC.
The data set “crystal structure” concerns the molecule itself. Put plainly: crystal structure.

B1: D. melanogaster Boca structured domain (dmBocaSD) (domain or fragment, Drosophila melanogaster)
chain: GSQKHMSKKGRTLMTFVSVTGNPTREESDTITKLWQTSLWNNHIQAERYMVDDNRAIFLFKDGTQAWDAKDFLIEQERCKGVTIENKEYPG
B1 registered a dissociation constant Kd in “AUC” of 77 ± 3.1 µM.

B2: Selenomethionyl D. melanogaster Boca structured domain (SeMet dmBocaSD) (domain or fragment, Drosophila melanogaster)
chain: B1 chain
modifications: selenomethionyl (SeMet) protein
For the protein B2, the binding result in “crystal structure” is “binds”.

B3: D. melanogaster Boca conserved core (dmBocaCC) (domain or fragment, Drosophila melanogaster)
chain: GSHMKKDIRDYSEADLERLLDQWEEDEEPLEDDELPEHLRPQPKLDLSNLDSKSPEDLLKVSKKGRTLMTFVSVTGNPTREESDTITKLWQTSLWNNHIQAERYMVDDNRAIFLFKDGTQAWDAKDFLIEQERCKGVTIENKEYPG
The protein B3 showed a dissociation constant Kd in the data set “AUC” of 155 ± 4.6 µM.

B4: M. musculus Mesd structured domain (mmMesdSD) (domain or fragment, Mus musculus)
chain: GSHMTKKGKTLMMFVTVSGNPTEKETEEITSLWQGSLFNANYDVQRFIVGSDRAIFMLRDGSYAWEIKDFLVSQDRCAEVTLEGQMYPG
As to B4, in the data set “AUC”, the affinity, expressed as Kd, was 276 ± 13.8 µM.

What is called Kd is the concentration at which binding is half-saturated.
